Measured values reported in patent US8575097B2, “Exendin variant and conjugate thereof” (Pegbio Co., Ltd., priority 2009, dated 2013).

Test system: guinea pigs
Test: Systematically allergic reaction in guinea pigs (Example 23)
Type: in vivo, guinea pig
Settings: albumin 240 mg/kg via toe vein
Source text: 44 male healthy guinea pigs were provided, and the body weight of each guinea pig was about 300 g.

B1: chicken ovalbumin (protein, UniProt P01012 2-386, looked up)
Ovalbumin: GSIGAASMEFCFDVFKELKVHHANENIFYCPIAIMSALAMVYLGAKDSTRTQINKVVRFDKLPGFGDSIEAQCGTSVNVHSSLRDILNQITKPNDVYSFSLASRLYAEERYPILPEYLQCVKELYRGGLEPINFQTAADQARELINSWVESQTNGIIRNVLQPSSVDSQTAMVLVNAIVFKGLWEKAFKDEDTQAMPFRVTEQESKPVQMMYQIGLFRVASMASEKMKILELPFASGTMSMLVLLPDEVSGLEQLESIINFEKLTEWTSSNVMEERKIKVYLPRMKMEEKYNLTSVLMAMGITDVFSSSANLSGISSAESLKISQAVHAAHAEINEAGREVVGSAEAGVDAASVSEEFRADHPFLFCIKHIATNAVLFFGRCVSP
notes: chicken ovalbumin, albumin group in the guinea pig allergy test
time to death after stimulation: < 2 min
